Target: LKB1 (endogenous, C2C12 myotubes) (mouse (endogenous in C2C12)) (UniProt Q9WTK7)
Details: scale: % of the AMPK phosphorylation obtained with AICAR

UniProt Q9WTK7, sequence (Q9WTK7 whole entry): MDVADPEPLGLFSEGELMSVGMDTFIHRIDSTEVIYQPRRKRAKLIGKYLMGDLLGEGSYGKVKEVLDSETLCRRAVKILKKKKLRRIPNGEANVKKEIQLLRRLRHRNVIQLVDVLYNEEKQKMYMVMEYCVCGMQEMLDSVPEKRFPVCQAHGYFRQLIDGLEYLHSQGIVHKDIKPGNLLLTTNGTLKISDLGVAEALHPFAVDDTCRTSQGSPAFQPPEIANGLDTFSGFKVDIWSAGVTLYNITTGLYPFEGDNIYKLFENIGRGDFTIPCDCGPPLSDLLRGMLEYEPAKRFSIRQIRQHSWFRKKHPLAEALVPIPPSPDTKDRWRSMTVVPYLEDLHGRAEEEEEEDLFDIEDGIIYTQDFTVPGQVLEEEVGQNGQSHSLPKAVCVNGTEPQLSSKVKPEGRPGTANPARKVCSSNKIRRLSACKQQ

AMPK T172 phosphorylation in C2C12 myotubes transduced with increasing concentrations of 11R-WT, immunoblot; little effect with 11R-Sca: 80
Substance: Fyn (endogenous, C2C12 myotubes) (from UniProt P39688 1-537) (enzyme)

Source: paper PMC3934923
